Results on two substances are retold here after patent publication US20250188186A1.

The target in test [1] is GST-tagged human FcRn-β2m (human) (UniProt P55899). In words: ELISA, antibody immobilized, FcRn titrated (the concentration is that of FcRn), anti-FLAG-HRP, pH 6.0 [pH 6.0]. (In general: An ELISA detects its analyte on a solid surface through an enzyme-linked reagent.)
For test [2], the target named is human FcγRIIb ectodomain, N-terminal AVI and C-terminal His tags (human) (UniProt P31994). The experiment in a line: BLI, antibody on FAB2G tips, FcγRIIb in solution, pH 6.5, steady-state Kd,SS. In general terms: BLI is a label-free optical method that tracks binding on a fibre tip over time.
Sequence of human FcγRIIb ectodomain, N-terminal AVI and C-terminal His tags (human) (P31994 43-217): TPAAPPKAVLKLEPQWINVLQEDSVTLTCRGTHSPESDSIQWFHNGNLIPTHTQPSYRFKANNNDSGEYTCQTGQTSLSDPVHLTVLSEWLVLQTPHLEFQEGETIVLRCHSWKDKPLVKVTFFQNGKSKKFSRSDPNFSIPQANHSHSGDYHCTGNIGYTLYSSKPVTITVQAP
The target of test [3] is human FcγRIIIa F158 ectodomain, N-terminal AVI and C-terminal His tags (human) (UniProt P08637). The experiment in a line: BLI, antibody on FAB2G tips, FcγRIIIa F158 in solution, pH 7.4, kinetic Kd.
Sequence of human FcγRIIIa F158 ectodomain, N-terminal AVI and C-terminal His tags (human) (P08637 17-208): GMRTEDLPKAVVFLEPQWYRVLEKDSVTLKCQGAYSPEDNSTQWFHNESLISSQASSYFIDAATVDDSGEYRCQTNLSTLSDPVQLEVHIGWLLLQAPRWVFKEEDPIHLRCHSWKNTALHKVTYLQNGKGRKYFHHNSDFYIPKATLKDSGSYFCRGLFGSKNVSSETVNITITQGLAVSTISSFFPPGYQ
The target in test [4] is human FcγRIIa R131 ectodomain, N-terminal AVI and C-terminal His tags (human) (UniProt P12318). In words: BLI, antibody on FAB2G tips, FcγRIIa R131 in solution, pH 7.4, steady-state Kd,SS.
Sequence of human FcγRIIa R131 ectodomain, N-terminal AVI and C-terminal His tags (human) (P12318 34-217 H167R): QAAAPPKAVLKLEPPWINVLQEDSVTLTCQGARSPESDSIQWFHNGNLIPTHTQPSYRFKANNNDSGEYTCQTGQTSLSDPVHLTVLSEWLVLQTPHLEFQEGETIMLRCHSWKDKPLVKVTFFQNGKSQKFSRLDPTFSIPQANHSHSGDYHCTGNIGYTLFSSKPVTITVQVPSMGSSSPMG
For test [5], the target named is human FcγRIIIa F158 ectodomain, N-terminal AVI and C-terminal His tags (human) (UniProt P08637). The experiment in a line: BLI, antibody on FAB2G tips, FcγRIIIa F158 in solution, pH 7.4, steady-state Kd,SS (Langmuir fit).
Test [6] has as its target human FcγRIIa H131 ectodomain, N-terminal AVI and C-terminal His tags (human) (UniProt P12318). In words: BLI, antibody on FAB2G tips, FcγRIIa H131 in solution, pH 7.4, steady-state Kd,SS.
Test [7] addresses human FcγRIIIa F158 ectodomain, N-terminal AVI and C-terminal His tags (human) (UniProt P08637). In words: BLI, antibody on FAB2G tips, FcγRIIIa F158 in solution, pH 6.5, steady-state Kd,SS (Langmuir fit).
In test [8] the target is human FcγRIIa R131 ectodomain, N-terminal AVI and C-terminal His tags (human) (UniProt P12318). In words: BLI, antibody on FAB2G tips, FcγRIIa R131 in solution, pH 6.5, steady-state Kd,SS.
Test [9] addresses human FcγRIIIa F158 ectodomain, N-terminal AVI and C-terminal His tags (human) (UniProt P08637). The experiment in a line: BLI, antibody on FAB2G tips, FcγRIIIa F158 in solution, pH 6.5, kinetic Kd.
Test [10] has as its target human FcγRIIa H131 ectodomain, N-terminal AVI and C-terminal His tags (human) (UniProt P12318). In words: BLI, antibody on FAB2G tips, FcγRIIa H131 in solution, pH 6.5, steady-state Kd,SS.
Test [11] has as its target FcγRIIIa allele V158 on NK-92 effector cells (human) (UniProt P08637). In words: cell-based or functional assay.
The target of test [12] is human FcγRIIb ectodomain, N-terminal AVI and C-terminal His tags (human) (UniProt P31994). The experiment in a line: BLI, antibody on FAB2G tips, FcγRIIb in solution, pH 7.4, steady-state Kd,SS.

Sequence of FcγRIIIa allele V158 on NK-92 effector cells (human) (P08637 17-254 F176V): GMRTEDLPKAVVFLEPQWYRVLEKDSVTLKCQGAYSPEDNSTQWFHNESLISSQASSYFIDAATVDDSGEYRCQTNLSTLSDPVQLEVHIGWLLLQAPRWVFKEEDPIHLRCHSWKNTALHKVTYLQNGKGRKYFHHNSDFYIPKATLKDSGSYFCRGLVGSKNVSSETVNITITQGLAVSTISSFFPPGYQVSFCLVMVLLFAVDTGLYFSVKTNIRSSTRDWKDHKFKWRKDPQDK
Sequence of human FcγRIIa H131 ectodomain, N-terminal AVI and C-terminal His tags (human) (P12318 34-217): as the sequence (P12318 34-217 H167R) above, with R134H counted along it
Sequence of GST-tagged human FcRn-β2m (human) (P55899 24-297 limits assumed, chain 1 of 2): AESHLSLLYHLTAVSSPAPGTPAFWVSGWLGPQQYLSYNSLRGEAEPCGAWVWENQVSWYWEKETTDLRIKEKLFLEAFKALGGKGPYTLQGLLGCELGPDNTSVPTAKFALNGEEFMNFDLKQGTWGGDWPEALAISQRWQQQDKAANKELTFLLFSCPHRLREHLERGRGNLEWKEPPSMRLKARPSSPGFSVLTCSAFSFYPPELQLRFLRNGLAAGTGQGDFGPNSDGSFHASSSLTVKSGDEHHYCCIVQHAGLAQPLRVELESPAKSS
Sequence of GST-tagged human FcRn-β2m (human) (P61769 21-119 limits assumed, chain 2 of 2, further chain): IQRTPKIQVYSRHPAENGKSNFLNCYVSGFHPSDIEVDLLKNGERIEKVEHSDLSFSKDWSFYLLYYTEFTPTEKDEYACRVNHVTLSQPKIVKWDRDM

One may read the EC50 (read off the curve) as the concentration at which the effect is half-maximal. “hu4D5 antibody with M252Y/S254T/T256E (YTE) Fc” displayed a half-maximal effective concentration (EC50 (read off the curve)) in test [1] of 0.01 µg/mL.

For orientation: Kd means the free concentration of one partner at which half of the binding sites on the other are occupied at equilibrium, for simple one-to-one binding. Low values mean a tighter complex, high ones a looser complex. On to “hu4D5 antibody with acid-Fc (S267E, H268D, Y296H)”, for which the Kd was found to be 112 nM in [2]; 909 nM in [3]; 37.1 nM in test [4]; 1090 nM in test [5]; 497 nM in [6]; 603 nM in [7]. Also, the Kd in test [8] turned out to be 37.1 nM; in [9] it was 538 nM; in [10], 331 nM; in test [12] it was 109 nM. Moreover, the ADCC EC50, SKBR3 target cells, NK-92 (V158) effector cells, pH 6.5 in test [11] came to 121 ng/mL. In test [11], this substance returned an ADCC EC50, SKBR3 target cells, NK-92 (V158) effector cells, pH 7.4 of 2310 ng/mL. Also, the ADCC: lysis of calcein-loaded SKOV3 target cells, 50 ng/mL antibody, E:T 10:1, 4 h, pH 6.5 in [11] is 47.6%. Besides, the ADCC: lysis of calcein-loaded SKOV3 target cells, 50 ng/mL antibody, E:T 10:1, 4 h, pH 7.4 in [11] was 19.5%.
